Substitutions are numbered along the chain they refer to. Names and notes keep the numbering of the source. Read-outs that look alike come from different tables or passages of the source. Values belong to the binder of their own block, whether it stands above or below them.
Key:
human FcγRIIIa(F) [1] = target: T1, human FcγRIIIa(F) (human, UniProt P08637 17-208, limits assumed); test: SPR (Biacore T100), antibody captured by Protein A, FcγR as analyte, HBS-EP+, 25°C, 1:1 Langmuir global fit
T1 construct: also called FcgRIIIaF; hFcgRIIIa(F)

human FcγRIIIa(F) [2] = target: T1, human FcγRIIIa(F); test: SPR (Biacore T100), ratio of the KD values of Table 24, reference IgG1 (IL6R-G1d/IL6R-L)
human FcγRIIIa(F) [3] = target: T1, human FcγRIIIa(F); test: SPR (Biacore T100), antibody captured by Protein A, FcγR as analyte, 25°C; weak binding, KD calculated by Equation 5 (1:1 binding model)
mouse FcγRIV [4] = target: T2, mouse FcγRIV (mouse); test: SPR (Biacore), antibody captured on Protein L, mouse FcγR as analyte, pH 7.4, 25 C
T2 construct: Bought soluble receptor; also called mFcgRIV; mFcgR IV
T2 sequence (A0A0B4J1G0 21-203): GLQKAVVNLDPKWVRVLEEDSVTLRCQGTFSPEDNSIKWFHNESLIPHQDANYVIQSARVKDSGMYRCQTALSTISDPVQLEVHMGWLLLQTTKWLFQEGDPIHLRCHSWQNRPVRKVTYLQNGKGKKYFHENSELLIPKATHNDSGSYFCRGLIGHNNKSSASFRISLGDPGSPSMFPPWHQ

mouse FcγRIV [5] = target: T2, mouse FcγRIV; test: SPR (Biacore), antibody captured on Protein L, mouse FcγR as analyte, pH 7.4, 25 C (method of Example 4, RU)
human FcγRIIIa(F) [6] = target: T3, human FcγRIIIa(F) (human, UniProt P08637 17-208, limits assumed); test: SPR (Biacore), antibody captured on Protein L, human FcγR as analyte, pH 7.4, 25 C
T3 construct: also called hFcgRIIIa(F); hFcgRIIIa

human FcγRIIIa(F) [7] = target: T3, human FcγRIIIa(F); test: as above; remark: listed apart in the source
human FcRn [8] = target: T4, human FcRn (human); test: SPR (Biacore), antibody captured by Protein L, human FcRn as analyte, pH 7.0
T4 construct: Soluble human FcRn complexed with β2-microglobulin; also called hFcRn; soluble human FcRn complexed with β2-microglobulin

human FcRn [9] = target: T5, human FcRn (human); test: SPR (Biacore), pH 7.0, 25 C, antibody captured by Protein L, human FcRn as analyte
T5 construct: also called hFcRn; soluble human FcRn complexed with β2-microglobulin

[10] = target: T6, human FcRn (soluble human FcRn complexed with β2-microglobulin) (human, UniProt P61769 21-119); test: Biacore SPR, pH 7.0, 25 C; antibody captured by Protein L, human FcRn as analyte
T6 construct: also called hFcRn

[11] = target: T7, human FcRn (soluble human FcRn complexed with beta2-microglobulin) (human, UniProt P61769 21-119); test: SPR (Biacore), pH 7.0, 25 C, antibody captured by Protein L, human FcRn as analyte
T7 construct: also called hFcRn

human FcRn [12] = target: T8, human FcRn (human); test: SPR (Biacore), pH 7.0, 25 C; antibody captured on Protein L, human FcRn injected
T8 construct: Soluble human FcRn complexed with beta2-microglobulin; also called hFcRn; soluble human FcRn complexed with β2-microglobulin

human FcRn [13] = target: T4, human FcRn; test: SPR (Biacore), antibody captured by Protein L, human FcRn as analyte, pH 7.0; remark: listed apart in the source
[14] = target: T7, human FcRn (soluble human FcRn …); test: SPR (Biacore), pH 7.0, 25 C, antibody captured by Protein L, human FcRn as analyte; remark: listed apart in the source
[15] = target: T9, human FcRn (soluble human FcRn complexed with β2-microglobulin) (human, UniProt P61769 21-119); test: SPR (Biacore), Protein L capture, hFcRn analyte, pH 7.0
T9 construct: also called hFcRn

human FcRn [16] = target: T4, human FcRn; test: SPR (Biacore), antibody captured by Protein L, human FcRn as analyte, pH 7.0; remark: listed apart in the source
human FcRn [17] = target: T8, human FcRn; test: SPR (Biacore), pH 7.0, 25 C; antibody captured on Protein L, human FcRn injected; remark: listed apart in the source

B1: IgG1 (IL6R-G1d / IL6R-L) (antibody)
heavy: not shown
light: DIQMTQSPSSLSASVGDRVTITCRASQDISSYLNWYQQKPGKAPKLLIYYTSRLHSGVPSRFSGSGSGTDFTFTISSLQPEDIATYYCQQGNTLPYTFGQGTKVEIK
notes: Anti-human IL-6 receptor antibody; G1d constant region (IgG1 without C-terminal Gly and Lys); L chain of tocilizumab
Kd (human FcγRIIIa(F) [1]): 3100 nM

B6: VH3/L(WT)-IgG1-F698 (antibody, name in EU numbering)
heavy: QVQLQESGPGLVKPSETLSLTCAVSGHSISHDHAWSWVRQPPGEGLEWIGFISYSGITNYNPSLQGRVTISRDNSKNTLYLQMNSLRAEDTAVYYCARSLARTTAMDYWGEGTLVTVSSASTKGPSVFPLAPSSKSTSGGTAALGCLVKDYFPEPVTVSWNSGALTSGVHTFPAVLQSSGLYSLSSVVTVPSSSLGTQTYICNVNHKPSNTKVDKKVEPKSCDKTHTCPPCPAPELLGGPSVFLFPPKPKDTLYISRTPEVTCVVVDVSHEDPEVKFNWYVDGVEVHEAKTKPREEQYNSTYRVVSVLQVLHADWLNGKEYKCKVSNKALPAPIEKTISKAKGQPREPQVYTLPPSRDELTKNQVSLTCLVKGFYPSDIAVEWESNGQPENNYKTTPPVLDSDGSFFLYSKLTVDKSRWQQGNVFSCSVMHEALHYHYTQKSLSLSP
light: not shown
notes: The positions are EU numbering, not positions on the entry; copies: 2 + 2
BINDING AMOUNT (RU) (human FcγRIIIa(F) [6]): 55.9 RU | BINDING AMOUNT (RU) (human FcγRIIIa(F) [7]): 55.9 RU

B9: F1189 (antibody, name in EU numbering)
heavy: B6 heavy with E288N, Q309T, A313Q, H435D, Y438V, Q440R, S442E
light: not shown
notes: copies: 2 + 2
Kd (human FcRn [9]): 157 nM

B10: IgG1-F185 (antibody, name in EU numbering)
heavy: B6 heavy with Y254W, E288N, Q309T, A313Q, I334V
light: not shown
notes: VH3-IgG1 Fc variant; EU numbering
Kd [10]: 260 nM

B12: IgG1-F1288 (antibody, name in EU numbering)
heavy: B6 heavy with L237R, S241K, T258E, E288N, Q309T, A313Q, Y438V, Q440K, S442D
light: not shown
notes: light chain L(WT)-CK; copies: 2 + 2
Kd (human FcRn [8]): 79.5 nM

B13: IgG1-F1019 (antibody, name in EU numbering)
heavy: B6 heavy with P240D, T252V, E288N, Q309T, A313Q, N327G
light: not shown
Kd [11]: 340 nM

B14: IgG1-F802 (antibody)
heavy: B6 heavy with E288N, Q309T, A313Q, N317V
light: not shown
notes: Substitutions by EU numbering; copies: 2 + 2
Kd (human FcRn [12]): 330 nM

B16: IgG1-F1039 (antibody, name in EU numbering)
heavy: B6 heavy with L237K, P240D, S241K, E288N, Q309T, A313Q, Y438V
light: not shown
Kd [14]: 130 nM

B17: IgG1-F1014 (antibody, name in EU numbering)
heavy: B6 heavy with L237R, S241K, T252V, E288N, V310P
light: not shown
Kd [11]: 32 nM

B19: IgG1-F791 (antibody)
heavy: B6 heavy with E288N, Q309T, A313Q, N317F
light: not shown
notes: as for B14
Kd (human FcRn [12]): 440 nM

B20: IgG1-F527 (antibody, name in EU numbering)
heavy: B6 heavy with Y254M, P259V, E288N, V310P, A313Q, N327G, M430Y
light: not shown
notes: copies: 2 + 2
Kd [15]: 9.4 nM

B21: IgG1-F492 (antibody, name in EU numbering)
heavy: B6 heavy with Y254M, P259V, E288N, V307A, Q309A, A313Q, N327G, M430L
light: not shown
notes: copies: 2 + 2
Kd [15]: 98 nM

B22: IgG1-F529 (antibody, name in EU numbering)
heavy: B6 heavy with Y254M, P259T, E288N, A313Q, M430F
light: not shown
notes: copies: 2 + 2
Kd [15]: 25 nM

B24: IgG1-F197 (antibody, name in EU numbering)
heavy: B6 heavy with Y254M, P259T, E288N, A313Q, M430L
light: not shown
notes: as for B10
Kd [10]: 33 nM

B26: IgG1-F1031 (antibody, name in EU numbering)
heavy: B6 heavy with G238A, S241D, T252V, E288N, I334E, Y438V
light: not shown
Kd [14]: 53 nM

B27: IgG1-F1017 (antibody)
heavy: B6 heavy with L237R, S241K, T252V, V310P, Y438V
light: not shown
Kd [11]: 4.2 nM

B28: F1211 (antibody, human IgG1, kappa, name in EU numbering)
heavy: B6 heavy with L253H, E288N, Q309T, A313Q, Y438V
light: not shown
notes: copies: 2 + 2
Kd (human FcRn [9]): 1230 nM

B29: IgG1-F755 (antibody)
heavy: B6 heavy with P240D, T252S, E288N, Q309T, A313Q
light: not shown
notes: as for B14
Kd (human FcRn [17]): 350 nM

B31: IgG1-F770 (antibody)
heavy: B6 heavy with T258A, E288N, Q309T, A313Q
light: not shown
notes: as for B14
Kd (human FcRn [17]): 300 nM

B32: F1192 (antibody, name in EU numbering)
heavy: B6 heavy with E288N, Q309T, A313Q, Y438V, T439G, Q440R, S442E
light: not shown
notes: copies: 2 + 2
Kd (human FcRn [9]): 127 nM

Now from value to binder:

relative KD (KD of IgG1 / KD of the variant) (human FcγRIIIa(F) [2]): 0.35 fold | Kd (human FcγRIIIa(F) [1]): 8800 nM
B2: IgG1-v3 (IL6R-G1d_v3 / IL6R-L) (antibody)
heavy: not shown
light: B1 light
notes: IL6R-G1d with S267E/L328F (EU numbering)

Kd (human FcγRIIIa(F) [3]): 23000 nM | relative KD (KD of IgG1 / KD of the variant) (human FcγRIIIa(F) [2]): 0.14 fold
B3: IgG1-v2 (IL6R-G1d_v2 / IL6R-L) (antibody)
heavy: not shown
light: B1 light
notes: IL6R-G1d with L328E (EU numbering)

Kd (human FcγRIIIa(F) [3]): 51000 nM | relative KD (KD of IgG1 / KD of the variant) (human FcγRIIIa(F) [2]): 0.061 fold
B4: IgG1-v1 (IL6R-G1d_v1 / IL6R-L) (antibody)
heavy: not shown
light: B1 light
notes: IL6R-G1d with P238D (EU numbering)

BINDING AMOUNT (RU) (mouse FcγRIV [4]): 242 RU | BINDING AMOUNT (mouse FcγRIV [5]): 279
B5: antibody with VH3-IgG1-F947 heavy chain and L(WT)-CK light chain (antibody)
heavy: B6 heavy with T252V, E288N, V310P, Y438V
light: not shown
notes: copies: 2 + 2

Kd (human FcRn [8]): 133 nM
B7: IgG1-F1289 (antibody, name in EU numbering)
heavy: B6 heavy with L237R, S241K, T258E, E288N, Q309T, A313Q, H435D, Y438V, Q440R, S442E
light: not shown
notes: as for B12

BINDING AMOUNT (RU) (human FcγRIIIa(F) [6]): -2.9 RU
B8: VH3/L(WT)-IgG1-F763 (antibody, name in EU numbering)
heavy: B6 heavy with L237R, S241K
light: not shown
notes: as for B6

BINDING AMOUNT (RU) (human FcγRIIIa(F) [7]): -2 RU
B11: VH3/L(WT)-IgG1-F699 (antibody, name in EU numbering)
heavy: B6 heavy with S241K
light: not shown
notes: as for B6

Kd (human FcRn [13]): 87.8 nM
B15: IgG1-F1335 (antibody, name in EU numbering)
heavy: B6 heavy with L237R, G238R, S241K, S256T, E288N, Q309T, A313Q, Y438V, Q440K, S442D
light: not shown
notes: as for B12

BINDING AMOUNT (mouse FcγRIV [5]): 85.6
B18: antibody with VH3-IgG1-F1326 heavy chain and L(WT)-CK light chain (antibody)
heavy: B6 heavy with L236A, L237A, T252V, E288N, V310P, Y438V
light: not shown
notes: copies: 2 + 2

Kd (human FcRn [13]): 251 nM
B23: IgG1-F1339 (antibody, name in EU numbering)
heavy: QVQLQESGPGLVKPSETLSLTCAVSGHSISHDHAWSWVRQPPGEGLEWIGFISYSGITNYNPSLQGRVTISRDNSKNTLYLQMNSLRAEDTAVYYCARSLARTTAMDYWGEGTLVTVSSASTKGPSVFPLAPSSKSTSGGTAALGCLVKDYFPEPVTVSWNSGALTSGVHTFPAVLQSSGLYSLSSVVTVPSSSLGTQTYICNVNHKPSNTKVDKKVEPKSCDKTHTCPPCPAPELRGGPKVFLFPPKPKDTLYITREPEVTCVVVDVSHEDPEVKFNWYVDGVEVHNAKTKPREEQYNSTYRVVSVLTVLHQDWLNGKEYKCKVSNKALPAPIEKTISKAKGQPREPQVYTLPPSRDELTKNQVSLTCLVKGFYPSDIAVEWESNGQPENNYKTTPPVLDSDGSFFLYSKLTVDKSRWQQGNVFSCSVMHEALDYHTTKKELSLSP
light: not shown
notes: as for B12

Kd (human FcRn [16]): 74.9 nM
B25: IgG1-F1364 (antibody, name in EU numbering)
heavy: B23 heavy with T256S, D435H, T438F
light: not shown
notes: as for B12

Kd (human FcRn [13]): 55.8 nM
B30: IgG1-F1340 (antibody, name in EU numbering)
heavy: B23 heavy with D435H, T438V
light: not shown
notes: as for B12

Kd (human FcRn [8]): 169 nM
B33: IgG1-F1311 (antibody, name in EU numbering)
heavy: B23 heavy with T256S, E258T, V424A, S426A, T438V, K440Q, E442S
light: not shown
notes: as for B12
